Source: patent US20040191240A1 (published 2004)

Target: T1, amino-terminally FLAG-tagged human p75 (human, UniProt P08138 29-427)
T1 construct: also called FLAG-tagged p75; FLAG-p75; not shown: FLAG tag at the amino terminus
T1 sequence: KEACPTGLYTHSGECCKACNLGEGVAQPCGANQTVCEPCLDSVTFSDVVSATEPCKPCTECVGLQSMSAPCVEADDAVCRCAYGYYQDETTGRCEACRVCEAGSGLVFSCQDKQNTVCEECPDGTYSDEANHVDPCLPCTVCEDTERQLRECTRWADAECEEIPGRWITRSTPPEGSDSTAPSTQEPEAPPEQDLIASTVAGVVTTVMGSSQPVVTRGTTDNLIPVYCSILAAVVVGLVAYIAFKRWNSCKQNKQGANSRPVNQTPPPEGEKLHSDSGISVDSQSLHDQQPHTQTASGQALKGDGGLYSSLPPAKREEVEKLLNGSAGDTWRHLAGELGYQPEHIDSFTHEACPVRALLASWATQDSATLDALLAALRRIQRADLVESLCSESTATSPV
Experiment: competition: Pep5 at several concentrations against 1 uM GST-Rho GDI for immunoprecipitated p75

binding result: binds
B1: Pep5 (peptide)
peptide: CFFRGGFFNHNPRYC
notes: Chemically synthesized 15-residue peptide; also called peptide ligand to the p75 HD
